These are literature values, as cited in patent US20040063697A1, “Compositions of cyclooxygenase-2 selective inhibitors and thrombolytic agents for the treatment or prevention of a vaso-occlusive event” (priority 2002, published 2004).

For series [1] the following is noted: for Elimination / Half-Life: in vivo.
The target of a further series is plasminogen (Homo sapiens, UniProt P00747).
For series [2] the following is noted: for Antigenicity: in vivo; for immune response: when administered to a human.
The test system of series [3] is vascular smooth muscle cells. Conditions: in vitro.
Another series concerns restenosis. Conditions: orally administered, stent implanted pig arteries.
Series [4] relates to coronary intimal proliferation. Conditions: oral administration, swine model of restenosis.
The test system of the next series is minimal lumen diameter. Conditions: single dose intravenous pretreatment before coronary stenting, at 6 months.

Chain of plasminogen (P00747 20-810 limits assumed): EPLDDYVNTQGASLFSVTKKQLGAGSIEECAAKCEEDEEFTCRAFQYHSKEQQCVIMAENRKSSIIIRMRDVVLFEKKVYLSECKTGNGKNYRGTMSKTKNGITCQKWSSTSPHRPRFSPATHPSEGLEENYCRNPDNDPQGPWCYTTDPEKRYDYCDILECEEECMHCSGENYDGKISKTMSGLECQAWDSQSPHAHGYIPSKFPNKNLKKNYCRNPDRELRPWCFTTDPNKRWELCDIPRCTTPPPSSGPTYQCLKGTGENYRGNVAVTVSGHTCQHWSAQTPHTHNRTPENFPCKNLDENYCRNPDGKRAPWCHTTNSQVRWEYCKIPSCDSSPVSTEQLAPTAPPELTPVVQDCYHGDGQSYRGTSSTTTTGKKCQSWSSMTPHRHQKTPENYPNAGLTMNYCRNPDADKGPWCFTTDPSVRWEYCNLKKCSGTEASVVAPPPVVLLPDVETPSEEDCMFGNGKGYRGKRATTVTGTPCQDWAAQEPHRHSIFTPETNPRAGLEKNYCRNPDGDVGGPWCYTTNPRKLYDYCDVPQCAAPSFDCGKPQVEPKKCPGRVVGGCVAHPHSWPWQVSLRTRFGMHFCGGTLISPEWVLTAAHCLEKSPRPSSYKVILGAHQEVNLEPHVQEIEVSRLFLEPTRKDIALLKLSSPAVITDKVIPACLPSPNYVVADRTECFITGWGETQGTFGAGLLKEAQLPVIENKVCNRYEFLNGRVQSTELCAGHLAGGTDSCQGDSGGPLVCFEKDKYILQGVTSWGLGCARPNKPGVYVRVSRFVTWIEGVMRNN

On to “Alteplase: biosynthetic, glycosylated form of human t-PA”, for which, in series [1], the Elimination result was “Hepatic” and the “Half-Life” value was 4 to 8 min. Also, in series [1] (in words), the “plasma clearance time and half-life” value is “rapid plasma clearance time and a short half-life”. In the series with plasminogen, the “Method of Plasminogen Activation” value is “Direct”. In addition, in series [2], the Antigenicity result is reported as “No” and the immune response result is “no immune response is elicited”.
Consider Urokinase, for which, in series [1], the Elimination result is “Hepatic” and the “Half-Life” value is 15 to 20 min. At plasminogen, the “Method of Plasminogen Activation” value is listed as “Direct” and the “activation of fibrin-bound plasminogen versus circulating plasminogen” value is listed as “activates fibrin-bound plasminogen as well as circulating plasminogen”. In series [2], the Antigenicity result is “No” and the immune response entry is “does not elicit an immune response”.
Take `COc1cc(/C=C/C(=O)CC(=O)/C=C/c2ccc(O)c(OC)c2)ccc1O` [curcumin]: the “proliferation of vascular smooth muscle cells” value in series [3] is reported as “reduced proliferation”.
On to `COc1ccc(C=CC(=O)Nc2ccccc2C(=O)O)cc1OC` [tranilast, N-(3,4-dimethoxycinnamoyl) anthranilic acid], for which, in the series on restenosis, the rate of restenosis entry is on record as “lower rate of restenosis”.
Turning to t-PA: tissue plasminogen activators, the “activation of fibrin-bound plasminogen versus circulating plasminogen” value in the series with plasminogen is recorded as “highly specific for the activation of fibrin-bound plasminogen over circulating plasminogen”.
For `CN(C)CCCO[C@@H]1[C@H]2OC(C)(C)O[C@H]2O[C@@H]1[C@H](O)CO.Cl` [aniprilose hydrochloride], in series [4], the coronary intimal proliferation entry is recorded as “did not prevent”.
With “Streptokinase: plasminogen activator produced by beta-hemolytic streptococci”, in series [1], the Elimination result is recorded as “Hepatic” and the “Half-Life” value is 15 to 25 min. In the series with plasminogen, the “Method of Plasminogen Activation” value was “Indirect” and the “activation of fibrin-bound plasminogen versus circulating plasminogen” value was “activate fibrin-bound plasminogen as well as circulating plasminogen”. For the same compound, in series [2], the Antigenicity entry is “Yes” and the immune response result is “induce an immune response”.
`C[C@H]1C[C@@H]2[C@H]([C@@H](O)C[C@@]3(C)[C@H]2CC[C@]3(O)C(=O)CO)[C@@]2(C)C=CC(=O)C=C12` [methylpridnisolone]: the “change in minimal lumen diameter” value in the series with minimal lumen diameter was “no effect”.
